In article doi:10.1101/2022.04.08.487687, “In Silico Improvement of Highly Protective Anti-Malarial Antibodies” (bioRxiv, 2022):
No end group written: not given here.

Target: T1, peptide 21 (PfCSP residues 101-115), biotinylated (Plasmodium falciparum 3D7, UniProt Q7K740, also: biotin, position not given here)
T1 construct: Biotinylated probe used in AlphaLISA and BLI; also called Pep21; P21
T1 chain: NPDPNANPNVDPNAN
Assay: BLI; Octet Red384; biotinylated Pep21 immobilised on streptavidin biosensors; Fab serially diluted from 1000 to 62.5 nM; 30°C; PBS + 1% BSA; global fit, 1:1 Langmuir model
Conditions: both partners purified

B1: P3-43 Fab (m43.151 variant P100KH) (Fab, V domains shown)
VH: QVHLVQSGAEVKKPGASVKVSCKASGYTFTSYAIHWVRQAPGQRLEWMGWIKGGNGNTRYSQKFQDRVTITRDTSASTAYMELSSLRSEDTAVYYCALLTVITKDDAFDIWGQGTMVTVSS
VL: not shown
notes: as the heavy chain of m5 (m43.151) with the stated change; as the light chain of m5 (m43.151), no change stated; Best m43.151-based variant; source: Fab produced from the antibody
Kd: 8.9 ± 0.5 nM
